Key:
12283-H08H = 12283-H08H (human, UniProt Q08722 19-139); test: SPR
[1] = target: human CD47 protein (antigen of the SPR affinity determination) (human, UniProt Q08722 19-139); test: SPR

| Binder | Kd (12283-H08H) [nM] | Kd [1] [nM] |
| --- | --- | --- |
| Hu004-68 (antibody, V domains shown) VH: EVQLVESGGGLVQPGGSLRLSCAASGFTFSGYGMSWVRQAPGKGLEWVATITSGGTYTYYPDSVKGRFTISRDNAKNSLYLQMNSLRAEDTAVYYCARSLAGNAMDYWGQGTLVTVSS VL: EIVLTQSPVTLSVSPGERATLSCRASQGVTSNLAWYQQKPGQAPRLLIYGASTRATGVPARFSGSGSGTEFTLTISSLQSEDFAVYYCQHRGTFGQGTKVDIK | 222 |  |
| Hu004-73 antibody (full-length human IgG1, kappa) (antibody, V domains shown) VH: EVQLVESGGGLVQPGGSLRLSCAASGFTFSGYGMSWVRQAPGKGLEWVATITSGGTYTYYPDSVKGRFTISRDNAKNSLYLQMNSLRAEDTAVYYCARSLAGNAMDYWGQGTLVTVSS VL: DIQMTQSPSSLSASVGDRVTITCRAGQPLNNYLNWYQQKPGKPPRLLIYAASTLQSGVPSRFSGSGSGTDFTLTISGLQSEDFASYFCQHRVTFGPGTKVDVR |  | 184 |

Reference: patent publication US20240368279A1 (published 2024)
